Experimental data as given in PMC7211764 (Biochemistry, 2019).

Biological target: the molecule itself
Assay: SEC

B1: A3A H29R (enzyme)
chain: not shown
stoichiometry N: 2
